From PMC4117760

Assays:
[1] = molecular target: MBP-DXV VP3 (Drosophila X virus (DXV)) (UniProt Q96724); assay: EMSA
[2] = system: MBP-CYV VP3 (Culex Y virus (CYV)); assay: EMSA

Chain of UniProt Q96724 (Q96724 whole entry): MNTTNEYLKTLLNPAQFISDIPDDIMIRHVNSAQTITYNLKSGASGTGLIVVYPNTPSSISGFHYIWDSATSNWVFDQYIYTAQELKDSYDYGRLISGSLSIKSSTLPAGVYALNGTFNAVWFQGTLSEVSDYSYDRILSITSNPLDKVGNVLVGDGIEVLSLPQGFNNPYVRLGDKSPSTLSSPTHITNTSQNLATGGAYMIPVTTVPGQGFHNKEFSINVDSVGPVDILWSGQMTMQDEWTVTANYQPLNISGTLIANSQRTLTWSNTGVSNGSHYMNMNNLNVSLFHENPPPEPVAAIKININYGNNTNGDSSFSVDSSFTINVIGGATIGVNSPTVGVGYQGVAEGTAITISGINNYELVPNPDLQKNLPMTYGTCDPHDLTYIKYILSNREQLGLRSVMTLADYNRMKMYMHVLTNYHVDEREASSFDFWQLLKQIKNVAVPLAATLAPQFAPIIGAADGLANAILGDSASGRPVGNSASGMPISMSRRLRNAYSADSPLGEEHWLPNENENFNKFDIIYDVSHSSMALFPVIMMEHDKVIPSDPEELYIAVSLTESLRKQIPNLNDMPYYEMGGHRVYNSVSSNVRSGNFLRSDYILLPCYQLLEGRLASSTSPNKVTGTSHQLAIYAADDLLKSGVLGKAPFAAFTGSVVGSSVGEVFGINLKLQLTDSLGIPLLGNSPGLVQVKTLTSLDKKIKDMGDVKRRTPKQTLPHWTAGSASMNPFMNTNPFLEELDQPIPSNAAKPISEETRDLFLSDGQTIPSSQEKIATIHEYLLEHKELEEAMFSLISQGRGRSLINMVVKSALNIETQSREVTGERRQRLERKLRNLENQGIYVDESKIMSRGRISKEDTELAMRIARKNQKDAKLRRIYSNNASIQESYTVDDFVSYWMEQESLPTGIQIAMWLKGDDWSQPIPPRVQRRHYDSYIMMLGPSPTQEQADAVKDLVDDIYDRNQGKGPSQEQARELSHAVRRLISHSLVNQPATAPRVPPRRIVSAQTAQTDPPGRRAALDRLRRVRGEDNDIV

126-nt FLuc dsRNA
Kd [1]: 166 nM | Kd [2]: 116 nM
